We go through 24 molecules from patent US20240002497A1 (Merck Sharp & Dohme, published 2024).

Positions count from the first letter of the chain named. Names and notes keep the numbering of the source. Read-outs that look alike come from different tables or passages of the source.

Assay [1] has as its target T1, rhNav1.7α+β1-β2-β3 (rhesus monkey α subunit with human β …).
T1 construct: P2A cleaves it into α, β1, β2, β3; also called rhNav1.7-beta1-beta2-beta3
Kind of assay: binding FACS, CHO FlpIn cells.

Assay [2] has as its target T2, huNav1.7α + β1 (human).
T2 construct: HEK293 cells; also called huNav1.7-beta1; huNav1.7-β1
The assay can be described thus: binding FACS, HEK.

The target of assay [3] is T3, huNav1.7α (human, UniProt Q15858 1-1988).
T3 construct: HEK cells expressing the α subunit without β subunits; also called huNav1.7 (alpha-subunit); Human Nav1.7α
The assay can be described thus: binding FACS, HEK.

For assay [4], the target named is T2, huNav1.7α + β1. Kind of assay: cell-based or functional assay.
Assay [5] has as its target T2, huNav1.7α + β1. The assay can be described thus: competition FACS vs EC25 of F103275B05(N93R), HEK.
For assay [6], the target named is T3, huNav1.7α. The assay can be described thus: competition FACS vs EC25 of F103275B05(N93R), HEK.
In assay [7] the target is T4, rhNav1.7α + β1-β2-β3 (rhesus monkey).
T4 construct: also called rhNav1.7-beta1-beta2-beta3; rhNav1.7-β1-β2-β3
Kind of assay: competition FACS vs EC40 of F103275B05(N93R), CHO FlpIn.

For assay [8], the target named is T5, huNav1.7α + β1-β2-β3 (human, UniProt Q15858 1-1988; A5A6L6 19-218; O60939 30-215; Q2KI11 23-215).
T5 construct: also called huNav1.7-beta1-beta2-beta3; huNav1.7-β1-β2-β3
The assay can be described thus: competition FACS vs EC25 of F103275B05(N93R), CHO FlpIn.

In assay [9] the target is T5, huNav1.7α + β1-β2-β3. Kind of assay: cell-based or functional assay.
The target in assay [10] is T3, huNav1.7α. Kind of assay: cell-based or functional assay.
Assay [11] deals with T5, huNav1.7α + β1-β2-β3. Kind of assay: competition FACS vs EC25 of F103275B05(N93R), HEK FlpIn.
Assay [12] has as its target T2, huNav1.7α + β1. The assay can be described thus: cell-based or functional assay. The source holds these as a separate data set.
In assay [13] the target is T6, huNav1.7α (human Nav1.7 alpha subunit, expressed without β subunits) (human, UniProt Q15858 1-1988).
T6 construct: also called HEK293 human Nav1.7α; HEKa Nav1.7α
Kind of assay: binding FACS, HEKa cells.

Assay [14] deals with T7, huNav1.7α + β1 (human Nav1.7α co-expressed with Navβ1) (human, UniProt Q15858 1-1988; Q07699 19-218).
T7 construct: also called HEK293 human Nav1.7α + β1; HEKa/β1 Nav1.7α
Kind of assay: binding FACS, HEKa/β1 cells.

In assay [15] the target is T8, huNav1.7α + β1-β2-β3 (human Nav1.7α co-expressed with Navβ1, Navβ2 and Navβ3) (human).
T8 construct: also called huNav1.7-beta1-beta2-beta3
The assay can be described thus: binding FACS, HEK FlpIn cells.

The target in assay [16] is T2, huNav1.7α + β1. Kind of assay: cell-based or functional assay. This is another data set of the same source.
In assay [17] the target is T9, huNav1.7α+β1 (human, UniProt Q15858 1-1988; Q07699 19-218). The assay can be described thus: cell-based or functional assay.
Assay [18] deals with T9, huNav1.7α+β1. Kind of assay: binding FACS, HEKa/β1 cells. In a few lines: (§1)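 Cells in FACS buffer (PBS, 10% FBS, NaN₃) were incubated with purified FLAG3-tagged ISVD for 30 minutes at 4° C. Bound ISVD was detected by flow cytometry with murine anti-Flag, and dead cells were excluded with 1 μg/mL propidium iodide.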
Assay [19] has as its target T10, huNav1.7α+β1-β2-β3 (human, UniProt Q15858 1-1988; Q07699 19-218; O60939 30-215; Q9NY72 23-215).
T10 construct: 5N11S variant; also called huNav1.7-beta1-beta2-beta3; huNav1.7α+Navβ1-Navβ2-Navβ3
The assay can be described thus: binding FACS, HEK FlpIn cells.

The target in assay [20] is T11, huNav1.7α (human, UniProt Q15858 1-1988).
T11 construct: HEK cells expressing the α subunit alone; also called HEKa; HEK huNav1.7α
The assay can be described thus: binding FACS, HEKa cells. In a few lines:
as §1

B1: F010302341 (VHH)
VHH: EVQLVESGGGVVQPGGSLRLSCAASSRQFIRDVFTGWYRQAPGKQRELVARIYNEGNTNYADSAKGRFTISRDNAKKTVYLQMNSLRPEDTALYYCLFSGTISTGREYRSGDYWGQGTLVTVSS
notes: F010302365 background plus A28Q, R39Q, G54E
In the case of B1, the binding result in assay [1] is listed as “no binding”.

B2: F010302357 (VHH)
VHH: B1 VHH with A64V
notes: F010302365 background plus A28Q, R39Q, G54E, A63V
B2: the binding result in assay [1] is “no binding”.

B3: F010302365 (VHH)
VHH: B1 VHH with Q28A, Q40R, E55G
notes: also called F0103464B09(L11V, T24A, T25S, V40A, E44Q, F62S, S68T, M77T, T79Y, R81Q, S82aN, N82bS, K83R, G88A, V89L, N99S)
Take B3: the binding result in assay [1] was “no binding”.

B4: F010302366 (VHH)
VHH: B1 VHH with Q28A, E55G
notes: F010302365 background plus R39Q
As for B4, the binding result in [1] was “no binding”.

B5: 65ASP (Fc fusion)
chain: EVQLVESGGGLVQPGGSLRLSCAASGSIFNINSMAWYRRAPGKQRELVASSTNGGSTNYADSVKGRFTISRDNAKRVYLQMNSLTPEDTAVYYCNALLQPSIYDISRTYWGQGTLVTVSS
notes: also called F0103275B05-5GS-Fc; not shown: 5GS linker; Fc moiety
For the molecule B5, the concentration giving a half-maximal response (EC50) in [2] stood at 45 nM; in [3] it was 21 nM. In addition, the “Qpatch IC50 [M], HEK cells” value in [4] was found to be 1.2e-07 M.

B6: F010300468 (VHH)
VHH: B5 chain with N95R
notes: also called F0103275B05(N93R) + FLAG3-HIS6; F103275B05(N93R) + FLAG3-HIS6
Take B6: the IC50 in assay [5] is 67 nM; in [6] it was 49 nM; in [7], 77 nM; in assay [8], 130 nM; in [11], 97 nM. Besides, the “Qpatch IC50” value was 99 nM in [9] and 57 nM in assay [10].

B7: F010301558 (VHH)
VHH: EVQLVESGGGLVQAGGSLRLSCAASGRILRIGYMRWHRQGAGKQREFVARITGDSATGYADSVKGRFTISRDNAKNTVYLQMNNLNPEDTAVYYCEALVTASVRGGSIHSGTYWGRGTLVTVSS
On to B7, for which the “Qpatch IC50” value in assay [12] was found to be 8 nM.

B8: F010301566 (VHH)
VHH: B7 VHH with A23D, G53D, D54G
Take B8: the “Qpatch IC50” value in assay [12] turned out to be 18 nM.

B9: F010301559 (VHH)
VHH: B7 VHH with G53D, D54G
B9: in assay [12], the “Qpatch IC50” value was 12 nM.

B10: F010301563 (VHH)
VHH: B7 VHH with G53D
For the molecule B10, the “Qpatch IC50” value in assay [12] amounted to 5 nM.

B11: F010302391 (VHH)
VHH: B7 VHH with L11V, A14P, H37Y, G40A, A41P, D54G, N84S, N86R, V92L, R116Q
With B11, in [12], the “Qpatch IC50” value came to 32 nM.

B12: F010302307 (VHH)
VHH: EVQLVESGGGVVQPGGSLRLSCAASGRILRIGYMRWYRQAPGKQREFVARITDDSATGYADSVKGRFTISRDAAKNTVYLQMNSLRPEDTALYYCEALVTASVRGGSIHSGTYWGQGTLVTVSS
notes: also called F0103387G05(L11V, A14P, D23A, H37Y, G40A, A41P, D58G, N73A, N82bS, N83R, V89L, R105Q)
As for B12, the Bmax in assay [13] was 100%. Moreover, the EC50 in [13] worked out at 2.8 nM; in assay [14] it was 1.9 nM; in assay [15] it was 2.9 nM.

B13: F010302309 (VHH)
VHH: B12 VHH with A73Q
notes: also called F0103387G05(L11V, A14P, D23A, H37Y, G40A, A41P, D58G, N73Q, N82bS, N83R, V89L, R105Q)
As for B13, the Bmax in assay [13] is 100%. Also, the EC50 in assay [13] amounted to 2.2 nM; in assay [14] it was 1.5 nM; in assay [15] it was 2.3 nM.

B14: F010302308 (VHH)
VHH: B12 VHH with A73Y
notes: also called F0103387G05(L11V, A14P, D23A, H37Y, G40A, A41P, D58G, N73Y, N82bS, N83R, V89L, R105Q)
In [13], B14 registered a Bmax of 100%. Moreover, the concentration for a half-maximal effect (EC50) in [13] worked out at 1.8 nM; in assay [14] it was 1.3 nM; in assay [15], 2 nM.

B15: F010301162 (VHH)
VHH: EVQLVESGGGLVQPGGSLRLSCAASGMLFNRNTQGWYRQAPGKQRELVAFIFSGGWTNYNDSVKGRFTISRDNAKRTMYLQMNSLKPEDSAIYYCSLSRYQGQGTLVTVSS
For B15, the “Qpatch IC50” value in assay [16] came to 32 nM.

B16: F010301090 (VHH)
VHH: B15 VHH with R31A, N58T
Consider B16, for which the “Qpatch IC50” value in [16] is 22 nM.

B17: F010301191 (VHH)
VHH: B15 VHH with S96A, R99V
B17: in [16], the “Qpatch IC50” value was determined as 63 nM.

B18: F010301129 (VHH)
VHH: B15 VHH with R31A, S96A
As for B18, the “Qpatch IC50” value in assay [16] is 126 nM.

B19: F010301080 (VHH)
VHH: B15 VHH with R31A, S53W, W56Y, T57V, N58T, Q101L
Turning to B19, in assay [16], the “Qpatch IC50” value came out at 14 nM.

B20: F010301191 (VHH)
VHH: B15 VHH with S96A, R99V
notes: vs F0103265A11: A31R, Y56W, V60N, S93A, R101V, L103Q
B20: the “IC50 [M], electrophysiology” value in assay [17] was 6.3e-08 M. Besides, in [18], the “Bmax relative to '535” value worked out at 119% and the EC50 was found to be 4.1 nM.

B21: F010301080 (VHH)
VHH: B15 VHH with R31A, S53W, W56Y, T57V, N58T, Q101L
notes: also called F0103265A11(S53W, T57V, N58T, V60N)
In the case of B21, the “IC50 [M], electrophysiology” value in [17] turned out to be 1.4e-08 M. For the same molecule, the figures for the concentration for a half-maximal effect (EC50) in [19], in [18] and in assay [20] were 5.1 nM, 3 nM and 26 nM, respectively. The “Bmax relative to '535” value in assay [18] stood at 122%.

B22: F010301162 (VHH)
VHH: B15 VHH
notes: vs F0103265A11: A31R, Y56W, V60N, L103Q
B22: the “IC50 [M], electrophysiology” value in [17] worked out at 3.2e-08 M. Also, in assay [18], the “Bmax relative to '535” value was 115% and the EC50 was 3.8 nM.

B23: F010301129 (VHH)
VHH: B15 VHH with R31A, S96A
notes: vs F0103265A11: Y56W, V60N, S93A, L103Q
Consider B23, for which the “IC50 [M], electrophysiology” value in assay [17] is 1.3e-07 M. In assay [18], the “Bmax relative to '535” value was 103% and a half-maximal response (EC50) required 3.6 nM.

B24: F010301090 (VHH)
VHH: B15 VHH with R31A, N58T
notes: vs F0103265A11: Y56W, N58T, V60N, L103Q
With B24, in [17], the “IC50 [M], electrophysiology” value stood at 2.2e-08 M. In addition, in assay [18], the “Bmax relative to '535” value is 102% and it took 4.8 nM to reach a half-maximal effect (EC50).

In general, EC50 refers to the midpoint of the concentration-response curve. For orientation: IC50 means the concentration that inhibits the measured activity by half.
